B1: RE1-silencing transcription factor (Homo sapiens), Q13127 (parent)
chain: MATQVMGQSSGGGGLFTSSGNIGMALPNDMYDLHDLSKAELAAPQLIMLANVALTGEVNGSCCDYLVGEERQMAELMPVGDNNFSDSEEGEGLEESADIKGEPHGLENMELRSLELSVVEPQPVFEASGAPDIYSSNKDLPPETPGAEDKGKSSKTKPFRCKPCQYEAESEEQFVHHIRVHSAKKFFVEESAEKQAKARESGSSTAEEGDFSKGPIRCDRCGYNTNRYDHYTAHLKHHTRAGDNERVYKCIICTYTTVSEYHWRKHLRNHFPRKVYTCGKCNYFSDRKNNYVQHVRTHTGERPYKCELCPYSSSQKTHLTRHMRTHSGEKPFKCDQCSYVASNQHEVTRHARQVHNGPKPLNCPHCDYKTADRSNFKKHVELHVNPRQFNCPVCDYAASKKCNLQYHFKSKHPTCPNKTMDVSKVKLKKTKKREADLPDNITNEKTEIEQTKIKGDVAGKKNEKSVKAEKRDVSKEKKPSNNVSVIQVTTRTRKSVTEVKEMDVHTGSNSEKFSKTKKSKRKLEVDSHSLHGPVNDEESSTKKKKKVESKSKNNSQEVPKGDSKVEENKKQNTCMKKSTKKKTLKNKSSKKSSKPPQKEPVEKGSAQMDPPQMGPAPTEAVQKGPVQVEPPPPMEHAQMEGAQIRPAPDEPVQMEVVQEGPAQKELLPPVEPAQMVGAQIVLAHMELPPPMETAQTEVAQMGPAPMEPAQMEVAQVESAPMQVVQKEPVQMELSPPMEVVQKEPVQIELSPPMEVVQKEPVKIELSPPIEVVQKEPVQMELSPPMGVVQKEPAQREPPPPREPPLHMEPISKKPPLRKDKKEKSNMQSERARKEQVLIEVGLVPVKDSWLLKESVSTEDLSPPSPPLPKENLREEASGDQKLLNTGEGNKEAPLQKVGAEEADESLPGLAANINESTHISSSGQNLNTPEGETLNGKHQTDSIVCEMKMDTDQNTRENLTGINSTVEEPVSPMLPPSAVEEREAVSKTALASPPATMAANESQEIDEDEGIHSHEGSDLSDNMSEGSDDSGLHGARPVPQESSRKNAKEALAVKAAKGDFVCIFCDRSFRKGKDYSKHLNRHLVNVYYLEEAAQGQE

Variants of: B1
Settings: with fbw1a_human BTRC

effect of a mutation on the interaction	Variant
disrupting interaction strength	E1009A
disrupting interaction strength	S1013A
disrupting interaction strength	E1009A;S1013A

— IntAct's records for PubMed 18354482
